Test: soluble on expression in E. coli; label from the status in PepcDB or PDB records

Soluble on expression in E. coli, soluble:
MAHHHHHHMFHRHSFYEKGSSAPRDGAGAGADGTQAHGGAAGGSCNNGGTSSSSTASSQQQREQDERLYGMGSATAQQRRQVRQQWEKSFFGRLHYEEGMHDRFSEALKSEDAEAFRQSIAGQSHADLFPHWPEEEEAPLSEFKRLRPSLQLHYIVNRLSSGERRIRYSVDFGGLLMMPQLNLGEMMVKEADTLLRELGWMNDEVAMRIEEVQALASKIKFDFDLD
MAHHHHHHMFLTFVRHTPPKTPRNVFFPWQNFSIHKSGSFLEKNRLALRVPINLTKFEIREYLRKIYNAKVIKVNTLIKVPERRRNLTDFRFNYYRNGPRYKKAIITLEHEVPDSVKMIQSCKNIGRNPYITKKNVIYGVRSDVKITPTRSQLWQMGECRYSWRLPLTNLLADYKMNLNPDLRIDENLVQLAPDMTKPFMHSGISSQTFKPSSVPEQTFPKVIFFFFQKGDVLA
MAHHHHHHMFTLCKGYSEDEDEEEVKDIIDNLKEQKKSFEEKINYYKLKGNIERSHITIYTNLGEFQVELYWYHSPKTCLNFYTLCTMGYYDNTIFHRVIPDYIIQGGDPTGTGKGGKSIYGEYFEDEINTELKHTGAGILSMSNNGPNTNGSQFFITLCPLPHLDGKHTIFARVSKNMTCIENIASVQTTATNKPIFDVKILRTSTAVNVD
MAHHHHHHMGKAAKGRTAMPGKLDTTEADKRTPKSIIIYRGEVGIHVRSLMHEWRNVFLPWSSKKLHGKNKSLKDFLAVAATFSASHLQLFTAPSQGTSLRIMRFFNGPTLSFRVLSFTLHKEIVAKQRRPVAVDRAAWEVAPIVVLNNFTHPDLAHRAEVPLLTATFKALFPSLNVQTIQSSEIQRICLFHYDHVEHVVEVRHYYINARTVGVTKTVKKLLENRRPTKLGTLESIDEVLDREDAWSDTDGEGEEVPLVQPFRQHREQCRVKLQEIGPRMTLQLSKVENGFAGGEVIYHRTEKKTLREVQVNASKVRARKTEKAKRRALQDENVQRKRQKREDKLERKHQRREAAAEAQQANPFEVAHGDGDGDGYAAGDEE
MAHHHHHHMGLEDIDECLPPSLGGKGQVLKGRPVNNGDGTSGSCAKVNFGELFGFPVASSGGAVMPSASAGVGSVQAGSKTECQEPEEQWIWVSAEGQKSEASPVDNMAGRSNDPLDAFFTSHTPSLQPSSSMKREEKPFTDLLDFSKPAERVRYSDEHSLLEAFENQSKGRRADVRDDPSLEDLSHGSSNNAVRARLLKIMNYYDILGVTRDATEEQIRQRYKQKALELHPDRVGRDQTPEEVELFKVMTKANEVLCDPEERAKYDEELRCSNVGADDEAQWLFHLHLR
MAHHHHHHMGLEDIDVDDPPLTTSATPQTQKQCSSTLPNPPVTNVVKGASAPVDLVDLFGDLNVSTATPVVVTAATVGAATNSKNQAHYAGNTADDDFEWVTAKPSVAPPLAPKSYQGNAGTSNDPLDSFFSQAVPTPAATETAKPPDSSNDLFDFSEPVERVKYTNENTLLEAFANQGKANQGGGSKGPTLADLSKGSSDNVVKARLLKLMNYYDVLGVTPDATEAVIRQRFKKKALELHPDRVGRDQTPEEVELFKVMTKAHEVLTDPEERAKYDAQLLGGVPSGSPDSDWFFPPS
MAHHHHHHMGTLEAQTQGPGSMGTSQEFETSSLKTLPLYELHEKAGAKFGAFAGWRMPLTYPLGVLKEHLHTRAHAGLFDISHMKLIAVEGPKAVEFLSYALPVDAALLKIGQSRYSYLLNERAGILDDLILTRLAECRFMLVANAGNAQADFAELEKRAFGFECQVIALERVLLALQGPQAAAVLADAGLPGNELLFMQGFEPQQDWFITRSGYTGEDGFEIALPIGCARALAEKLLGDSRVEWVGLAARDSLRLEAGLCLHGNDITPDTTPIDAALTWAVPKNVREKAQFYGAKAFLESLQKGPSRCRVGLKPQTRQPIRAGAVLFDNEGNRIGVVTSGGFGPSFDGPVAMGYVPVAWKVEGTEVFTELRGKKIALSVHSLPFVEQRYFKG
MAHHHHHHMGTLEAQTQGPGSMMETDATAEAAAVAYEDIITRFGAAPITDDLLKRFETVTGTKAHPMLRRGLFYAHRDFEEFLSYYEKGHPIYIYTGRGPSSGALHLGHLLPFIFTKYLQDAFKCYVVIQITDDEKFLRNRSLSYAEVDSYTRENIKDIIACGFDPDKTFIFINSQYLSLKNRYRFSCLVDRMLPISQLRASFGFSNDANVGYAAFPPKQMLPVYSTYFDGLPFTRVPLPVGTGNEDAADAVSTKKASKKTPKKDAVLSPVHVVEELFPDSKRYQKAMCLIASGIEQDPYFRLARDLAPRMGHPKNAYLLGKFLPGLQGSGTKMSASDPNSAIYLTDTPAQIKNKINRYAFSGGRDTEEEHRAFGADLSVDVSVRYLEVFMKDDAELEKLKADYKTGKLLTGEVKATLIGILQGLIKEHAERRDKVDTTMIESFTVKKELQ
MAHHHHHHMGTLEAQTQGPGSMPIKSSLLIVVACALLDQDNRVLLTQRPEGKSLAGLWEFPGGKVEQGETPEASLIRELEEELGVHVQADNLFPLTFASHGYETFHLLMPLYFCSHYKGVAQGREGQNLKWIFINDLDKYPMPEADKPLVQVLKNFFI

Soluble on expression in E. coli, not soluble:
MAHHHHHHMEVKEVQPQKRLQPACDAKGENGFPLTIPCERQKVANLAPHRPLRRFLEAMRADNQNLCALKGSAVHHLKKDLRGDEKQVVLSCETPSRSNRLREKYECMKKMRFNETQEALARECDLSRIIIELQKRIEDAEASREFEREVHARESFYLLKENECLKEQVRTTEKMLLDVRNNYNLEISKLNTRVSDLEDSLVAEGQRAKTREAEQERAIQNLCSNLYTTQGELERYVEKNRELASVNSLLEEMRAESWRDKRECTVWYEVLRRREVFMLLEREAFTELQCLCMQEMNRFWQIKDDSYQAMFCSEAERFLGHIIREAEICYEMKQLMFDNATASIEKETWISLHFSKVQELSRLSEKHEALSILLAQYMREVEEIQQGNLEQVLRRKTVDDASIAYMLHQRDNEVSDKLRTWKGALQEAHKLLTALLKRYEPFQRGDEVFVGRVMEWLISAPHVKEVINVFLP
MAHHHHHHMFAALSWLLDLDQGHAASSSSTSSCSSYSGSLDADAGVETDPAANHTTFSDAGGQLLAELHISSVAAATLSRSASEAAAPPRGAVYSSARHLEESFADLEARKAEFFAPSPCQEPAEDAGLGLSSLTERGGTPVSPLSCKIVPLGSLCAYANETVSLSPIASPVPAPVSATVATLLAPTHEDERLLLVSEGVMLSARLSSPSRGGPRAAAERAKITNNDGSATGAMGAGVAAPTQRSRILDWDREMHARPQASPPPGLSANRGERAVRSGTGVQERSEQIADAEPGEARLVRGAMKAAFMLSTPPHTPALGAAAFAPAAVPLHPSPPFLGTTVGARDAAVPGYSIERIHDTPAQEDSGVVYLADGLATVTSMDVGDLHRQAEQSSPPLTHPLAAQLTTPSHTKQPHFDFS
MAHHHHHHMGDNILDQKVDLFGGKGIFTKELDEELIKGKVHICVHSLKDVPMELPEQVQLSCFLKRDTINDAFLSVKYGTLEDMNKMKMANKMEEGSYQPKGMSQRVINQNVKRDNYEGDHYDNFIPTIGTSSLRRSSQIKYKYKNVAVKNMRGNINTRIAKLCNGQYDAIIIAKCGLERLTTKKGIRNIIGGKNKVTPKNFLINYNNTEINLTSLHIQQINKRTIYPALCQGIIAVSSHKSDKYISDVLKNINDEKAQIMANIERSFLYQIEGNCMMPIGGYAKIVNGEIVFNAVINDIHGREKYHVREVGKVESYNEIAVMAATKMKEKIGTHRFNKIREEAAQYYA
MAHHHHHHMGGAVSFCLQKLNKVSEVEYRPYKEYASYGEQSVPVKGSDDSGRSMIYRMSNTSEEELKRLRDEWYAGGSCLSVLERLCKERGKRTCLAYRKLKTIEKNETTTSDGRKKVLETYVFEPERRTMSYTLFWQNIVDFGRGLHEIGLTKGNTVSIYEETRWQWLCTMYSCWSQGLLVSTVYANLGEDALQYALDEAQCNAIVCNGSKVKDVLAMFKVIEAPKGTKVIYLDELPPSVTSEEYDLYAWSDVVARGKKSEASCRIPSGAESKDELALIMYTSGTTGNPKGVMHTHGSLYCGCMTISQRINDLLGKMKEQEWYCSYLPLAHIMELAVTSVLMMRGVIIGYGSPRTLLDTFAKPCGDLTTYRPLVFVAVPRVFDSMKRAVEEKLPPPGSLKRKIFDKAYEARLKALKKGCDTPFFNKRVFANARKVMGGRVYAMLSGGGPLSESTQEFINVVFGMVIQGWGMTESVACGGIQRTGNLEYNCVGQVLKTAEVQLLDTDEFKHTDQPEPRGEVLLRGPFLFKGYYKQPEQTREALDNDGWLHTGDVASVTPSGTMRIVGRVKALAKNANGEYLALEMLESIYGTNEITVPNGVCVLVHPHRTYIAIIAVTNEKLVKAFMKKHKIENGGFPAILDDAEFLRVVLQSLQKTARDANRCSFEVVQGVKLLNEEWTPENGVLTAAMKLKRRVISENYADFINKLFEKQ
MAHHHHHHMGISEGFEGIGVYAGSISAFMKPAHEKADATFVTNGDGVLPCEQPGSQAAIQAAQADYMASVAMTGKLPSPPHAGAEAHLHAHMQASHTSSLPRRAPPAALNVTPRNPPMSLAADPKLLSSPTSASAARPAVAAAAAAIGVTARPATSSLSSSPRPQSHIAKGASRVTADGSRIMRNKEATDYYRALPQNELSKEDMWRRINEASADRAEATGTAIGSAEVDYIKLEDELRDFDLFHYRIGEMAYPDQAMRRDYYALWNLAMSLNKARWSMLEVHSQRGMKTTGAGMKLIFWKESVGAVMEKRKMCTGEFTDSHPVLRPFAAAVERNPHMTKAFVRGFTDARLRVIQQPGNVQQLFDHFDKFYGYFFNSLLEVTHIKDEATEHLMTHVGRATGLTNHCVMFWKKYARLGFTMLPADLCADNHVNLGLLKNIPLASRDRAVRKVLFDVMCIVKDEMLHAQKCAKDVPPKAWPIVMECLYANYYLGFLQRRDFNVSAMFADHNIENAGFTWYRLKKRWEWERYQSIERLVDEAAPLPYINTCFTHRGSHYKMASGVGSGAPQAQRKRS
MAHHHHHHMGPTPYQDKPYPVQPHNLNEFQQPPDTWRKSPFMSKLMDQALPVYDDVVTGSGRLYWQEPAKVWHLFEADDTLILEEHDREEWNERPYVAVNHLYEPPIGSEERPIRVEAVGNPGDQQIVMCFGNCAPHVPQSTYYMMMKGYSKNKCPMCQQWFYIHNRPWLVMHPDWTDEPAADEGPAYTFAEIEAEFDRDFHEFAVYLNAE
MAHHHHHHMGQISSKEDEIEKQNIYATYPGLEQQLDMVFACHDISKQGKLSYKTVEMILRHFLMQCGFMEYVCRFVDENGTLDLKHVSNYLSIKKLMYKLKCCGESMLTLDEMKELVIIFLKKISDTYTEDQTKWLEQMKSSQEQQDKALEEAMYKYEKNILFHHAVKEQQILQNDKKLNEWNENVENAYEAQQEILRQFESSRKKNIDISLEKNNELIIAKDYIDKIKEAATDNKYDNSKCFIYPASSAPCGACTSAGAIIHHRRYKEKRRKKEYSLCL
MAHHHHHHMGRSFKVFLSNYVYRYGAAVWELRVCIERCAFPDYYAASPHDCAASSHYHAAYPPRSCSECGNHLSDPTELVSTSFRGRTGPAWLFSKVINVCEGQYEDRMMTTGQHTIVDIYCNNCRNNVGWKYEDSSEESQKYKKGKYILEKALLSFLVIDQHGKEHEFELKSSDCDF
MAHHHHHHMGSKYGSGNYQLFRALYKDLCDEIRREYYTKPPPPPPATRTTGASPSLVAAEAALEVHGSAGSGANDTSSGAAKQRSMAGGAGATSSSTQGGGMTAGSEREGSTVEAAHAARETAATPPSQPEETYGDGSWSVQHRPEDNVAVFHRGAVKRGRLAAVHAWARIELKDPPRLNAVLTFADWIPIEVCVERNGIVIHFSMAANEGGMHMRNVRVYEPKSAEERAALLDPSDDGEYARKNFYYDGPCLWHLELDMLNELYDVMQDHGVTLDWIRWAASWVFYLEHVNYVRWNLGMLEELIPSSLRGPEEDFLLPVEKALLAEPVEDWLRAHSI
